Assay results: publication PMC9439264 (Nature Communications, 2022)

Experiments:
[1] = biological target: T1, HA ectodomain of A/California/04/2009 (H1N1), recombinant (Influenza A virus A/California/04/2009 …, strain); test: SEC; conditions: both partners purified
T1 construct: source: baculovirus (pAcGP67B), H5 insect cells, supernatant purified with Ni-NTA

[2] = biological target: T2, HAhr^CA (head region of CA4/2009 HA, degraded HA monomer in the crystal) (Influenza A virus A/California/04/2009 …, strain); test: crystal structure; conditions: both partners purified
T2 chain: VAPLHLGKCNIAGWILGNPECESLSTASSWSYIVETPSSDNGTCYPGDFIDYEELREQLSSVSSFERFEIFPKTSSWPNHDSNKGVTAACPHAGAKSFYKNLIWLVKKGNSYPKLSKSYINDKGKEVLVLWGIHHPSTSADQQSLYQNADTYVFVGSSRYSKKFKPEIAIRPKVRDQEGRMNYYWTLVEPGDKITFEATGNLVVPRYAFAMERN

B1: 12H5 Fab (mouse antibody) (Fab, V domains shown)
VH: QIQLVQSGPELKKPGETVRISCKASGYTFTKNGMNWVQQAPGKGLKWVGWINTYTGEPSYADDFKGRFAFSLETSASTAYLQINNLKNEDMAAYFCARMVRDAMDFWGQGTSVTVSS
VL: DIVLTQSPASLAVSLGQRATISCKASQSVDFDGYNYLNWYQQKPGQPPKLLIYAASNLESGIPARFSGSGSGTDFTLNIHPVEEEDAATYFCQQSNEDPYTFGGGTKLEIK
notes: source: papain digestion of mAb 12H5 (mouse ascites, protein A), purified with DEAE-5PW
Does B1 bind [1]?
Result: binds

Does B1 bind [2]?
Result: binds
